According to patent US7387779B2, “Anti-angiogenic proteins and fragments and methods of use thereof” (Beth Israel Deaconess Medical Center, priority 1998, dated 2008):

Key:
C-PAE cells = assay: MTT cell viability assay; type: cell-based, bovine
Method: The pro-apoptotic activity of Tumstatin N-53 was examined in C-PAE cells. Cell viability was assessed by MTT (3-(4,5-dimethylthiazol-2-yl)-2-,5-diphenyl tetrasolium bromide) assay (Sugiyama, H. et al., 1998, Kidney Int. 54:1188-96). This assay is a quantitative calorimetric analysis for cell survival based on the ability of living cells to cleave the tetrasolium ring in active mitochondria. C-PAE cells (7,000 cells perwell) were plated to a 96-well plate in 10% FCS containing DMEM. The next day, either TNF-α (positive control, 80 ng/ml), or varying concentrations of Tumstatin or Tumstatin N-53 was added to the wells and incubated for 24 hours. MTT solution (5 mg/ml; CHEMICON International, Temecula, Calif., USA) was then added to the wells at a rate of 10 μl/well and incubated at 37° C. for 4 hours. Acid-isopropanol was added and mixed thoroughly. The absorbance was measured in a microplate reader (Bio-Rad, Hercules, Calif., USA) at 590 nm.
The MTT assay was used to evaluate cell viability in C-PAE endothelial cells and WM-164 melanoma cells after treatment with Tumstatin, Tum-1, Tum-2, Tum-3 and Tum-4. The results are shown in FIGS. 34A and 34B, which are a pair of graphs showing the effect of increasing concentration (x-axis) of Tumstatin, Tum-1, Tum-2, Tum-3 and Tum-4 on the cell viability (y-axis) of C-PAE cells (FIG. 34A) and WM-164 cells (FIG. 34B). Each point represents the mean ±the standard error of the mean for triplicate wells.
To further evaluate the mechanism of T3 peptide on endothelial cell proliferation, the effect of T3 peptide on cell cycle progression was analyzed. In the growth arrested and contact inhibited cells (0 hour), 4.1% of cells were in S phase. […] This was true even at a maximal dosage of 100 μg/ml. The effect of the T3 peptide was dose-dependent, however, with the percentage of cells in S phase at 21.4% at 10 μg/ml, and 20.5% at 25 μg/ml. The percentage of cells in G0/G1 phase was 88.3% at 0 hour, 53.4% for the bFGF control, and 57.6%, 57.6% and 71.0% for treatments with T1, T6 and T3 peptide, respectively. […] Apoptotic Activity: Peptides T2, T3, T4, T5 and T6 (10 μg/ml concentration) were tested for their effect of viability of C-PAE cells using the MTT assay, as described in Examples 32 and 36 above. The results are shown in FIG. 43D, which is a histogram showing cell viability as measured at OD595 (y-axis), and treatments with the synthetic peptides (x-axis). […] TNF-α (100 ng/ml) was used to serve as a positive control in inducing endothelial cell apoptosis.
Cell viability was measured by MTT assay, as described above.

HUVEC cells = assay: Cell adhesion assay with integrin blocking antibodies; type: cell-based, human; conditions: label = plate coating
Method: The attachment of HUVECs to Tumstatin-coated plates in the presence of integrin subunits α1 through α6, β1, and αvβ3 integrin blocking antibody was examined. This assay was performed according to the method of Senger et al. (Senger, D. R. et al, 1997, Proc. Natl. Acad. Sci. USA 94:13612-7), with minor modification. 96-well plates were coated with either human Tumstatin, mouse laminin-1, or human Type IV collagen (Collaborative Biomedical Prods., Bedford, Mass., USA) at a concentration of 10 μg/ml overnight at 37° C. Vitronectin (Collaborative Biomed. Prods.) at a concentration of 0.5 μg/ml was then used to coat the plates. The remaining protein binding sites were blocked with 100 mg/ml of BSA (Sigma Chemical Co., St. Louis, Mo., USA) in PBS for 2 hours. HUVEC cells were grown to subconfluence (70-80%) in EGM-2 medium, gently trypsinized and resuspended in serum-free medium (1.5×10^5 cells/ml). The cells were mixed with 10 μg/ml of either mouse IgG, (control) (Life Technologies/Gibco BRL, Gaithersberg, Md., USA) or antibody (mouse monoclonal antibody to the human β1 integrin (clone P4C10) (Life Technologies/Gibco BRL); monoclonal antibody to human integrins α1 through α.6 (CHEMICON Int'l, Temecula, Calif., USA); αvβ3 integrin (clone LM609) (CHEMICON Int'l) and incubated for 15 minutes at room temperature, with gentle agitation. One hundred microliters of the cell suspension was then added to each well and incubated for 45 minutes at 37° C. Unattached cells were removed by washing, and the number of attached cells were counted after staining with methylene blue. C-PAE cells were used in separate experiments, following the above procedure.
Cell Attachment Activity: Cell attachment using endothelial cells was performed as described above. HUVEC or C-PAE cells were incubated with monoclonal anti-human integrin antibodies, control mouse IgG (10 μg/ml), or synthetic peptide, plated onto pre-coated 96-well plates, and the number of cells attaching to the plates was determined using measurement of methylene blue staining at OD655. […] CNGRC peptide was used as a control.
The cell attachment assay was performed as described above.

C-PAE = assay: Endothelial tube formation assay (Table 4); type: cell-based, bovine
Method: Deletion fragments of tumstatin were cloned into bacterial expression vectors, expressed, purified using nickel chromoatography, and then analyzed for in vitro anti-angiogenic, and associated, activity. Special efforts were made to ensure the removal of contaminating endotoxins from the protein preparations. Full-length Tumstatin, Tumstatin-N53 and two additional deletion mutants (Tum-2C and Tum-KE) were made and tested. The deletion mutants were tested for endothelial cell proliferation, cell cycle progression, apoptosis, and endothelial tube formation.

Row | Molecule | effect on cell viability (C-PAE cells) | inhibition of HUVEC attachment by antibody to subunits α1 through α4 (HUVEC cells) | inhibition of HUVEC attachment by αvβ3 antibody and β1 antibody together (HUVEC cells) [%] | inhibition of HUVEC attachment to coated plates by α5 antibody (HUVEC cells; 10 μg/ml antibody) [%] | inhibition of HUVEC attachment to coated plates by α6 antibody (HUVEC cells; 10 μg/ml antibody) | inhibition of HUVEC attachment to coated plates by αvβ3 antibody (HUVEC cells; 10 μg/ml antibody) | inhibition of HUVEC attachment to coated plates by β1 antibody (HUVEC cells; 10 μg/ml antibody) | decrease of cell viability (C-PAE cells; 5 μg/ml, 24 hours) [%] | decrease of cell viability (C-PAE cells; 10 μg/ml) [%] | Tube (Endothelial tube formation assay) (C-PAE) | ED50, decrease of cell viability (C-PAE cells) [µg/mL]
1 | LQRFTTMPFLFCNVNDVCNF [T3] | significantly decrease cell viability | – | – | – | – | – | – | – | – | – | –
2 | Tumstatin: NC1 domain of the α3 chain of type IV collagen, residues 1-244 (SEQ ID NO:10) (protein, listed as Homo sapiens) GLKGKRGDSGSPATWTTRGFVFTRHSQTTAIPSCPEGTVPLYSGFSFLFVQGNQRAHGQDLGTLGSCLQRFTTMPFLFCNVNDVCNFASRNDYSYWLSTPALMPMNMAPITGRALEPYISRCTVCEGPAIAIAVHSQTTDIPPCPHGWISLWKGFSFIMFTSAGSEGTGQALASPGSCLEEFRASPFLECHGRGTCNYYSNSYSFWLASLNPERMFRKPIPSTVKAGELEKIISRCQVCMKKRH | – | did not block | 91 | 20 | 54% | 80% | 54% | 22.5 | 60 | active | –
3 | Tum-1: residues 54 to 244 of Tumstatin, lacking the N-terminal 53 amino acids (SEQ ID NO:22) (protein, Tum-1 (Tumstatin N-53) (amino acids 54-244 of SEQ ID NO10)) QRAHGQDLGTLGSCLQRFTTMPFLFCNVNDVCNFASRNDYSYWLSTPALMPMNMAPITGRALEPYISRCTVCEGPAIAIAVHSQTTDIPPCPHGWISLWKGFSFIMFTSAGSEGTGQALASPGSCLEEFRASPFLECHGRGTCNYYSNSYSFWLASLNPERMFRKPIPSTVKAGELEKIISRCQVCMKKRH | decreases cell viability in a dose-dependent manner | – | – | – | did not | inhibited this adhesion | inhibited this adhesion | 49.4 | – | active | –
4 | Tumstatin-44-131: residues 44 to 131 of full-length Tumstatin (SEQ ID NO:33) (protein, Tumstatin-45-132 (amino acids 45-132 of SEQ ID NO10)) FSFLFVQGNQRAHGQDLGTLGSCLQRFTTMPFLFCNVNDVCNFASRNDYSYWLSTPALMPMNMAPITGRALEPYISRCTVCEGPAIAI | – | – | – | – | – | 47.1% | 47.5% | – | – | active | 12
